Data: the supplement of paper PMC10065799, “High-throughput profiling of sequence recognition by tyrosine kinases and SH2 domains using bacterial peptide display” (eLife, 2023)

What was measured:
[1] = biological target: Fyn (UniProt P06241); assay: phosphorylation enrichment, bacterial display (enrichment ratio); higher = better substrate or ligand; peptides without Tyr show the background
[2] = tested on: AncSZ; assay: as above
[3] = biological target: EPHB1 (UniProt P54762); assay: as above
[4] = biological target: Jak2 (UniProt O60674); assay: as above
[5] = biological target: Fes (UniProt P07332); assay: as above
[6] = biological target: Hck (UniProt P08631); assay: as above
[7] = tested on: c-Abl (mouse); assay: as above
[8] = biological target: FGFR1 (UniProt P11362); assay: as above
[9] = biological target: EPHB2 (UniProt P29323); assay: as above
[10] = biological target: FGFR3 (UniProt P22607); assay: as above
[11] = tested on: c-Src; assay: as above
[12] = biological target: MERTK (UniProt Q12866); assay: as above
[13] = tested on: Fer (mouse); assay: as above
[14] = biological target: SHP2-C SH2; assay: SH2 binding enrichment of the phosphorylated peptide, bacterial display (enrichment ratio); higher = better substrate or ligand; peptides without Tyr show the background
[15] = biological target: Grb2 SH2 (UniProt P62993); assay: as above
[16] = biological target: c-Src SH2; assay: as above
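For SH2 binding enrichment of the phosphorylated peptide, bacterial display in this document: peptide library displayed on the E. coli surface as eCPX fusions, selected cells deep-sequenced, score is each peptide's frequency after selection divided by its frequency in the input.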
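For phosphorylation enrichment, bacterial display in this document: 11-residue human phosphosite peptides and single-mutation variants displayed on the E. coli surface, counted by deep sequencing, each peptide's frequency after selection divided by its frequency in the unselected input library; frequency after pTyr selection over input frequency; kinase dosed for 20-30% of maximal phosphorylation in three min.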

Fes, sequence (P07332 whole entry, looked up): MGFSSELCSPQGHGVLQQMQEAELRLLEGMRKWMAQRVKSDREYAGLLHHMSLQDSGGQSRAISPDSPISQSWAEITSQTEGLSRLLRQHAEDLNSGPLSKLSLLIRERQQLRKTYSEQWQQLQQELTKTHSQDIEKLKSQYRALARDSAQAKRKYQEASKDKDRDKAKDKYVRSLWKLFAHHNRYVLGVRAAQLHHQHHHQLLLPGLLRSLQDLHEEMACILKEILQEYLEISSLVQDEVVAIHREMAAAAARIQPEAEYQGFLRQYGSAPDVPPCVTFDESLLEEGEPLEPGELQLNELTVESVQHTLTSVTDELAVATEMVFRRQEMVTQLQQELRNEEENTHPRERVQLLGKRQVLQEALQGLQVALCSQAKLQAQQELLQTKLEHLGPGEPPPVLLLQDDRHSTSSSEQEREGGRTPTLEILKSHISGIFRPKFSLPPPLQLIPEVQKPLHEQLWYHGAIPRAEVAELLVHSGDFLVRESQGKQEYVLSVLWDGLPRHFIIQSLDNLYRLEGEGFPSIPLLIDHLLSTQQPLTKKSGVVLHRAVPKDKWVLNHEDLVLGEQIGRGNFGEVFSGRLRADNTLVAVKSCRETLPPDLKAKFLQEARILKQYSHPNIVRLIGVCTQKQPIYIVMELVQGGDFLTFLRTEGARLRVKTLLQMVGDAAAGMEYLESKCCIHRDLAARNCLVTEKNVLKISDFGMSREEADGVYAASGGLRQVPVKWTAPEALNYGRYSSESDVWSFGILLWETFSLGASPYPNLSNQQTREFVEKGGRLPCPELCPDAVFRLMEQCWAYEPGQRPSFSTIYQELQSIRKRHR
FGFR3, sequence (P22607 whole entry, looked up): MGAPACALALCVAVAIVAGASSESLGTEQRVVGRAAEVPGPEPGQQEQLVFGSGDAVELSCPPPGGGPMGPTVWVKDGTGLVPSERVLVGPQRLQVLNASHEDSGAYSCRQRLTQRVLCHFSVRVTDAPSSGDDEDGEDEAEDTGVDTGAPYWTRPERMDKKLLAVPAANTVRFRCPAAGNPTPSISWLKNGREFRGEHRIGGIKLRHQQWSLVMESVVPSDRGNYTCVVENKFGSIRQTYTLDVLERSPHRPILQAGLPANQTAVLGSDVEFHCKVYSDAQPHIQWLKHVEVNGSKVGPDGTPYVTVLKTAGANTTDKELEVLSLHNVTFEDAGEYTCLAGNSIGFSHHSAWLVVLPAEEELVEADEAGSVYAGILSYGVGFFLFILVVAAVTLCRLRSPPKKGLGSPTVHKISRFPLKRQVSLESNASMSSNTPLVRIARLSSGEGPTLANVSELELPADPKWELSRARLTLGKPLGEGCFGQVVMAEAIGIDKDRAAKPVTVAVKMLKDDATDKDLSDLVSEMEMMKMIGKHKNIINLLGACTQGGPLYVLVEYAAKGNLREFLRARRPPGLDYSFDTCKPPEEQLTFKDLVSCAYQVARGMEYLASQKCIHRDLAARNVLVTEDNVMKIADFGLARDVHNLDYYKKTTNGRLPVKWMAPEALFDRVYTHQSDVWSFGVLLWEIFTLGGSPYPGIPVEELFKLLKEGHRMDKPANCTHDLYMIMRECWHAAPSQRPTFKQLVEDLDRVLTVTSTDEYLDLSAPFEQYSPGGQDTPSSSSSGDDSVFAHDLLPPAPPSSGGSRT
EPHB1, sequence (P54762 whole entry, looked up): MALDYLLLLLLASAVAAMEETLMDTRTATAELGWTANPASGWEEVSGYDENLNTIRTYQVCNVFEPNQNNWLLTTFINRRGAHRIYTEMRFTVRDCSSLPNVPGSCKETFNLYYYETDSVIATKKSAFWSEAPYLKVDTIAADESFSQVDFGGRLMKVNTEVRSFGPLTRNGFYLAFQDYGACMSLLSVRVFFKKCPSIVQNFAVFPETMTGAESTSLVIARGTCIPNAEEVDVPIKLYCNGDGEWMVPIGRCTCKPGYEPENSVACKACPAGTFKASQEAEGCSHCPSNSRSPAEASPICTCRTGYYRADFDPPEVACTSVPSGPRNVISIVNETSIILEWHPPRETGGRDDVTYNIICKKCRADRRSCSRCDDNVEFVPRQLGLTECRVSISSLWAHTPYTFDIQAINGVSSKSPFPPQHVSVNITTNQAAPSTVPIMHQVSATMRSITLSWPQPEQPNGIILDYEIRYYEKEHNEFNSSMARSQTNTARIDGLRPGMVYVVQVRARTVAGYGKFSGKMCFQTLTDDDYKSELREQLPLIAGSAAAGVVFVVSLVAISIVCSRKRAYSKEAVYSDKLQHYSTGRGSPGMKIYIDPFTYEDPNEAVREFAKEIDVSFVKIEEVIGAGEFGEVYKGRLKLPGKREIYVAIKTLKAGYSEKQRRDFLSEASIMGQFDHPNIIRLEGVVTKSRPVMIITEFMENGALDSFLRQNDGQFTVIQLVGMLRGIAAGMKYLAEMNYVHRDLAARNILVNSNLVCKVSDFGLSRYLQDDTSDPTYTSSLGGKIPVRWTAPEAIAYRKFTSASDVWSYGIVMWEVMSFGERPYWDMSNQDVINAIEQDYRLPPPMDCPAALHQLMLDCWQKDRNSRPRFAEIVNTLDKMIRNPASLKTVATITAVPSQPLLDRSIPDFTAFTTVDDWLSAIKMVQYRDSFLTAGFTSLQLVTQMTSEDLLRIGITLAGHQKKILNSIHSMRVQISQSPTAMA
Hck, sequence (P08631 whole entry, looked up): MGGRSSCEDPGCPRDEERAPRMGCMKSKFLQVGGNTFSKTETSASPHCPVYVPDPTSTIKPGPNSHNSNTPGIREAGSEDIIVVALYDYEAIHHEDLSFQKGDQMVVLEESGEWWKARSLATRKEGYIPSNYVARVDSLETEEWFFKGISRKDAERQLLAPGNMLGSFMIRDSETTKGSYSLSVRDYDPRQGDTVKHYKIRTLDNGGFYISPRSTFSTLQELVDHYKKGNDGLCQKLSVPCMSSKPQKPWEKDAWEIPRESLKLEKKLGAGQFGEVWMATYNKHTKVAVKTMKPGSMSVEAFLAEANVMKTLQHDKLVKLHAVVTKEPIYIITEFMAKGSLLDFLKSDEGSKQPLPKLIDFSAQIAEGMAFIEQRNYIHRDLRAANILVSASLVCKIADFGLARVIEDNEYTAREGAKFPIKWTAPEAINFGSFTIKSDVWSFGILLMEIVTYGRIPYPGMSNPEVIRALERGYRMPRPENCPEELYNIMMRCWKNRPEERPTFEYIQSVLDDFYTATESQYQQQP
Grb2 SH2, sequence (P62993 whole entry, looked up): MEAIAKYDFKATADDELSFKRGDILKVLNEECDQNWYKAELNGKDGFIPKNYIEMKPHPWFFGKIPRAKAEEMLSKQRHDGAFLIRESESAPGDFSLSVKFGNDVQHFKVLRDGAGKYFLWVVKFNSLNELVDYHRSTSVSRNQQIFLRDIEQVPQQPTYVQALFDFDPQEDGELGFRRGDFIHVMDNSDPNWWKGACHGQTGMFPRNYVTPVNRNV
EPHB2, sequence (P29323 whole entry, looked up): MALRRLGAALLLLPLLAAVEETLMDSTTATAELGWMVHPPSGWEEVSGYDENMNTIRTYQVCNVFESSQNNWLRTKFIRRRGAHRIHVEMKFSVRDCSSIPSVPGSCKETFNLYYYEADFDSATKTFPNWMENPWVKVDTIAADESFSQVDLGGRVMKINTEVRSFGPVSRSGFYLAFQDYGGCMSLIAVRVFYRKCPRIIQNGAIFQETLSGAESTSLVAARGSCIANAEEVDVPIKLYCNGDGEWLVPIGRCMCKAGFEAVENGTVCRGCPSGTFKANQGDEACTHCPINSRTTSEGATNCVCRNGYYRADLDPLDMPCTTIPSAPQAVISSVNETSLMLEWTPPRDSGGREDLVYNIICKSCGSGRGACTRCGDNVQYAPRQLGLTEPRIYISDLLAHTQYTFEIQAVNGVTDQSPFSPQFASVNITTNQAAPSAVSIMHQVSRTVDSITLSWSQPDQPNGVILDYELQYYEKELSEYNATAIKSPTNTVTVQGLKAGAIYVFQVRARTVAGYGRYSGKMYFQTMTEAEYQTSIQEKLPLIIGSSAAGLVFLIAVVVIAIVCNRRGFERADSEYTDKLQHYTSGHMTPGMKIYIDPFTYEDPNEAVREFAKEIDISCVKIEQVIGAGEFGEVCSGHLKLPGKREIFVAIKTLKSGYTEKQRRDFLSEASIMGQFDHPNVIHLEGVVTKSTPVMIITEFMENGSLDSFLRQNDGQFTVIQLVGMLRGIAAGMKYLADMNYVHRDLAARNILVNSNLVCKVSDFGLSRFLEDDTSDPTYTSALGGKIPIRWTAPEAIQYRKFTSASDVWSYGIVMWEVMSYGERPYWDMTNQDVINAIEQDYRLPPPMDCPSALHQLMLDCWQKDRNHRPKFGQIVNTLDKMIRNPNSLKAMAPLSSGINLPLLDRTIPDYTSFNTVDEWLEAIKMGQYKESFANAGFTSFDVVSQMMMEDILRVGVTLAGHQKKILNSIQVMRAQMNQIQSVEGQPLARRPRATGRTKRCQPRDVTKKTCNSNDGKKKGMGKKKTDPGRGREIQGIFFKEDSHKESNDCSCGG
Fyn, sequence (P06241 whole entry, looked up): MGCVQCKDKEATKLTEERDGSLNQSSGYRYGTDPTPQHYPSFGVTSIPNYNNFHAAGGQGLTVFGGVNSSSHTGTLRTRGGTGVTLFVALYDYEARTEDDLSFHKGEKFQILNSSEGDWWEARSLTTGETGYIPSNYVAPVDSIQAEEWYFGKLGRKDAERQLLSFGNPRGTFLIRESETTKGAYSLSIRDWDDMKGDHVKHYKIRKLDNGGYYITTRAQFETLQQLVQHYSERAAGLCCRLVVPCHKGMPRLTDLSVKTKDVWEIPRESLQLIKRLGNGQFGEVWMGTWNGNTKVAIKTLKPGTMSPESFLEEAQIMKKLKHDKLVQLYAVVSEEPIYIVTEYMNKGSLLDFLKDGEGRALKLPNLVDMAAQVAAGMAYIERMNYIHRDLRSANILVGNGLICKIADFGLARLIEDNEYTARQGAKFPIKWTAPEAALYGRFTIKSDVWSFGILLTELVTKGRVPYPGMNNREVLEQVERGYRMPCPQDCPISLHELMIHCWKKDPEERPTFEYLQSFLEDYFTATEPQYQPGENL

| Sequence | phosphorylation enrichment [1] | phosphorylation enrichment [2] | phosphorylation enrichment [3] | phosphorylation enrichment [4] | phosphorylation enrichment [5] | phosphorylation enrichment [6] | phosphorylation enrichment [7] | phosphorylation enrichment [8] | phosphorylation enrichment [9] | phosphorylation enrichment [10] | phosphorylation enrichment [11] | phosphorylation enrichment [12] | phosphorylation enrichment [13] | SH2 binding enrichment [14] | SH2 binding enrichment [15] | SH2 binding enrichment [16] |
| --- | --- | --- | --- | --- | --- | --- | --- | --- | --- | --- | --- | --- | --- | --- | --- | --- |
| ALEKTYNTYRS [B4GALNT2_Y538] | 0.517 | 0.568 | 0.336 | 0.497 | 0.658 | 0.438 | 0.433 | 0.391 | 0.349 | 0.439 | 0.925 | 0.312 | 0.35 | 0.612 | 0.819 | 0.448 |
| ALKKPYGVLYK [RPF2_Y59] | 0.503 | 0.643 | 0.544 | 0.72 | 0.775 | 0.675 | 0.675 | 0.455 | 0.4 | 0.516 | 0.707 | 0.397 | 0.5 | 2.38 | 1.54 | 1.38 |
| ALRHYYKLNII [ETV6_Y402] | 0.506 | 0.968 | 0.579 | 1.3 | 1.28 | 0.527 | 0.839 | 1.3 | 0.533 | 1.36 | 0.427 | 0.522 | 0.693 | 1.42 | 1.54 | 1.35 |
| ALVLQYLRVPL [F9_Y371] | 0.455 | 1.03 | 0.61 | 1.6 | 1.02 | 0.536 | 0.62 | 0.582 | 0.5 | 0.662 | 0.39 | 0.378 | 0.55 | 1.74 | 1.8 | 1.66 |
| ANFTEYVATRW [CDKL5_Y171_YF] | 0.57 | 0.977 | 0.834 | 0.781 | 0.947 | 0.523 | 0.682 | 0.707 | 0.922 | 0.814 | 0.466 | 0.49 | 0.515 | 0.595 | 0.806 | 0.523 |
| ANKNVYEVEPT [MEGF10_Y1075_R1072K] | 4.42 | 0.823 | 0.516 | 0.848 | 0.938 | 0.798 | 0.6 | 0.383 | 0.492 | 0.7 | 2.9 | 1.04 | 0.36 | 0.941 | 0.821 | 1.59 |
| APGNAYGDAGY [SYP_Y250_D248N] | 0.418 | 0.731 | 0.515 | 0.851 | 0.77 | 0.474 | 0.607 | 0.428 | 0.451 | 0.512 | 0.497 | 0.423 | 0.452 | 0.52 | 0.681 | 0.441 |
| APRKVYDTQDD [ZFPL1_Y215_R218Q] | 0.495 | 0.993 | 0.692 | 0.808 | 1.09 | 0.586 | 0.766 | 0.549 | 0.685 | 0.653 | 0.479 | 0.466 | 0.67 | 0.671 | 0.716 | 0.501 |
| AQVDTYCRHNF [HLA-DRB1_Y107_A103Q_YF] | 0.433 | 0.676 | 0.369 | 0.673 | 0.959 | 0.446 | 0.59 | 0.668 | 0.479 | 0.472 | 0.434 | 0.528 | 0.628 | 0.834 | 1.06 | 0.621 |
| ARLDEYIAIAK [RCOR3_Y46_K42R] | 0.391 | 0.649 | 0.442 | 0.683 | 0.621 | 0.447 | 0.516 | 0.446 | 0.51 | 0.562 | 0.458 | 0.598 | 0.428 | 0.702 | 0.664 | 0.505 |
| ASENVYVNIAH [CTSC_Y150] | 1.99 | 0.881 | 1.92 | 0.986 | 0.827 | 1.94 | 0.8 | 3.4 | 0.924 | 2.05 | 2.21 | 0.826 | 3.79 | 5.86 | 6.93 | 2.4 |
| ASRKFYAMKIL [AKT3_Y174_G171R_YF] | 0.45 | 0.725 | 0.459 | 0.7 | 0.617 | 0.417 | 0.441 | 0.578 | 0.428 | 0.518 | 0.464 | 0.441 | 0.362 | 0.679 | 0.817 | 0.543 |
| ASTDFNKRGDF [PDHA1_Y243_Y243N_YF] | 0.365 | 0.511 | 0.297 | 0.53 | 0.585 | 0.462 | 0.521 | 0.373 | 0.341 | 0.378 | 0.44 | 0.418 | 0.347 | 0.706 | 0.705 | 0.612 |
| ATFRGYDSDNP [MMUT_Y146_H143Y_YF] | 0.51 | 0.904 | 0.424 | 0.811 | 0.896 | 0.528 | 0.666 | 0.571 | 0.513 | 0.531 | 0.425 | 0.373 | 0.553 | 0.718 | 1.01 | 0.572 |
| ATHSGYRLNDF [CLDN14_Y233_YF] | 0.419 | 0.587 | 0.472 | 0.558 | 0.601 | 0.391 | 0.906 | 0.322 | 0.514 | 0.538 | 0.453 | 0.42 | 0.361 | 0.542 | 1.04 | 0.421 |
| ATYRGYDSDNP [MMUT_Y146_H143Y] | 0.528 | 0.742 | 0.427 | 0.658 | 0.751 | 0.444 | 0.476 | 0.453 | 0.431 | 0.543 | 0.626 | 0.365 | 0.409 | 0.562 | 0.862 | 0.526 |
| AVEDQYYRVDC [FHL1_Y207_C209R] | 0.982 | 3.59 | 0.831 | 1.87 | 1.46 | 0.908 | 0.844 | 8.7 | 0.701 | 6.95 | 1.6 | 0.622 | 0.718 | 0.92 | 0.949 | 0.724 |

| Sequence | phosphorylation enrichment [1] | phosphorylation enrichment [2] | phosphorylation enrichment [3] | phosphorylation enrichment [4] | phosphorylation enrichment [5] | phosphorylation enrichment [6] | phosphorylation enrichment [7] | phosphorylation enrichment [8] | phosphorylation enrichment [9] | phosphorylation enrichment [10] | phosphorylation enrichment [11] | phosphorylation enrichment [12] | phosphorylation enrichment [13] | SH2 binding enrichment [14] | SH2 binding enrichment [15] | SH2 binding enrichment [16] |
| --- | --- | --- | --- | --- | --- | --- | --- | --- | --- | --- | --- | --- | --- | --- | --- | --- |
| CEAMEYQESKQ [BTK_Y511_L512Q] | 0.63 | 1.57 | 0.76 | 1.19 | 1.48 | 0.705 | 0.765 | 0.723 | 0.557 | 1.08 | 0.629 | 0.589 | 0.609 | 0.557 | 0.843 | 0.437 |
| CEDGNYSPEIS [PTDSS1_Y424_T423N] | 0.458 | 1.18 | 0.612 | 0.975 | 1.06 | 0.668 | 0.785 | 0.643 | 0.871 | 0.637 | 0.618 | 0.486 | 0.461 | 0.761 | 1.01 | 0.747 |
| CEETFYTMKVN [MASP2_Y401] | 1.04 | 1.48 | 0.766 | 1.51 | 1.4 | 0.756 | 0.9 | 0.546 | 0.625 | 0.935 | 1.41 | 0.529 | 0.738 | 0.788 | 0.842 | 0.522 |
| CENNRYGMGTS [PDHA1_Y227] | 0.518 | 0.991 | 0.686 | 0.999 | 1.36 | 0.555 | 0.715 | 0.548 | 0.606 | 0.726 | 0.517 | 0.397 | 0.538 | 0.6 | 0.77 | 0.44 |
| CHRQLYHKCTH [F12_Y58_Y53C] | 0.402 | 0.497 | 0.447 | 0.667 | 0.796 | 0.471 | 0.599 | 0.494 | 0.461 | 0.576 | 0.457 | 0.543 | 0.491 | 1.3 | 1.53 | 1.5 |
| CLSHCYFSQIR [MCM3AP_Y873_L870S] | 0.354 | 0.727 | 0.41 | 0.623 | 0.758 | 0.363 | 0.484 | 0.573 | 0.497 | 0.607 | 0.432 | 0.485 | 0.388 | 1.15 | 1.22 | 1.23 |
| CQAHGYFCQLI [STK11_Y156] | 0.405 | 0.873 | 0.413 | 0.751 | 0.836 | 0.436 | 0.514 | 0.479 | 0.546 | 0.609 | 0.428 | 0.407 | 0.402 | 1.17 | 1.2 | 0.984 |
| CQKRKYIEIDS [SDAD1_Y580_S575C] | 0.485 | 0.657 | 0.513 | 0.616 | 0.814 | 0.48 | 0.446 | 0.55 | 0.505 | 0.6 | 0.479 | 0.38 | 0.431 | 0.892 | 1.03 | 2.53 |
| CRIELYRVVES [IGFBP1_Y181] | 0.476 | 1.2 | 0.989 | 1.11 | 1.29 | 0.574 | 0.759 | 0.545 | 0.68 | 0.887 | 0.437 | 0.46 | 0.537 | 0.653 | 0.819 | 0.538 |
| CRWKRYQCSHD [GDPD5_Y30_R32C] | 0.52 | 0.559 | 0.458 | 0.612 | 0.666 | 0.529 | 0.41 | 0.488 | 0.493 | 0.562 | 0.448 | 0.384 | 0.425 | 0.583 | 0.656 | 0.494 |
| CSPLLYKVIMS [OR8D4_Y132_R133K] | 0.507 | 1.06 | 0.693 | 0.989 | 1.21 | 0.566 | 0.955 | 0.518 | 0.648 | 0.819 | 0.445 | 0.6 | 0.611 | 0.635 | 0.882 | 0.488 |
| CTLTHYKSAVK [ASNS_Y555_R550C] | 0.387 | 0.807 | 0.564 | 0.689 | 0.749 | 0.518 | 0.529 | 0.514 | 0.431 | 0.529 | 0.408 | 0.428 | 0.51 | 0.682 | 0.942 | 0.585 |
| CTSIHYNYMCN [TP53_Y234_T231S] | 0.42 | 0.842 | 0.99 | 0.733 | 0.805 | 0.514 | 0.535 | 0.67 | 0.63 | 0.591 | 0.5 | 0.448 | 0.676 | 2.73 | 1.2 | 6.03 |
| CTTIHKNYMCN [TP53_Y234_Y234K] | 0.395 | 0.733 | 0.515 | 0.702 | 0.792 | 0.409 | 0.603 | 0.499 | 0.503 | 0.56 | 0.404 | 0.484 | 0.406 | 1.16 | 1.05 | 0.866 |
| CTTIHSNFMCN [TP53_Y234_Y234S_YF] | 0.416 | 0.695 | 0.448 | 0.729 | 0.832 | 0.43 | 0.507 | 0.508 | 0.555 | 0.55 | 0.454 | 0.405 | 0.429 | 0.914 | 0.924 | 0.988 |
| CTTIHYNFMCD [TP53_Y234_N239D_YF] | 0.442 | 0.985 | 0.545 | 1.03 | 1.11 | 0.481 | 0.768 | 0.399 | 0.499 | 0.674 | 0.538 | 0.424 | 0.49 | 1.85 | 1.74 | 3.31 |
